Laboratory results taken from article PMC5861452.

Target: NS5A domain 1+ (WT) (Hepatitis C virus (replicon plasmid …, UniProt Q9WMX2 2005-2221))
Experiment: fluorescence polarization

Sequence of NS5A domain 1+ (WT) (Hepatitis C virus (Q9WMX2 2005-2221): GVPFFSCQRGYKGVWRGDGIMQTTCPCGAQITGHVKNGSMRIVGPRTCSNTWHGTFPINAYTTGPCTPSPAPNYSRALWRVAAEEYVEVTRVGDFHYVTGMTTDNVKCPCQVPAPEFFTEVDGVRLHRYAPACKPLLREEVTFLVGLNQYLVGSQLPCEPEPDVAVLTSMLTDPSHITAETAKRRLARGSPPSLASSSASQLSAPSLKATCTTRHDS

With GGCUGAGGCAGG (ssRNA) [RNA 1 (consensus sequence 1)] the Kd was 10 ± 1.5 nM.

Binder AAAAAAAAAAAAAAA (ssRNA) [RNA 6 (A15)] has a Kd of 1000 ± 150 nM.

Work on GGGUGGGGGUGG (ssRNA) [RNA 2 (consensus derived)] yielded a Kd of 20 ± 2.7 nM.

In the case of UGUUUGUUUGUCCC (ssRNA) [RNA 3 (minimal GRE)], the Kd is reported as 100 ± 10 nM.
